Square brackets hold non-standard residues; d marks the D form. Ends that are not written are not given here. pY = N[C@@H](Cc1ccc(OP(=O)(O)O)cc1)C(=O)O

Data on six molecules can be found in article PMC3411048 (The Journal of Biological Chemistry, 2012).

For experiment [1], the system named is SHP2. The settings on record: ref [11], [36]; cited from earlier work.
In experiment [2] the test system is N-SH2 domain of the phosphatase. The settings on record: phosphorylated tyrosine of N-terminal portion; ref [36]; cited from earlier work.
Experiment [3] is described as follows: Phosphopeptide array binding analysis. The settings on record: Two Sample Logo, peptide array, GST-tagged N-SH2 domain 1 μg/ml.

On to “GGGGDIT(pY)ADLNLPKGKKPAPQAAEPNNHTE(pY)ASIQTS [BTAM peptide]”, for which, in experiment [1], the “activation of SHP2” value is “previously demonstrated to activate SHP2”.
Take “GGGGDIT[pY]ADLNLPKGKK [N-terminal portion of the BTAM peptide]”: in experiment [2], the “binding to N-SH2 domain” value is “known to bind specifically the N-SH2 domain of the phosphatase”.

B1: wild-type domain: isolated wild-type N-SH2 domain (residues 6–103), polyHis- or GST-tagged (protein)
chain: WFHPNITGVEAENLLLTRGVDGSFLARPSKSNPGDFTLSVRRNGAVTHIKIQNTGDYYDLYGGEKFATLAELVQYYMEHHGQLKEKNGDVIELKYPLN
modifications: left off: polyHis, end not stated, kept
Turning to B1, in experiment [3], the “phosphopeptide positions mediating binding specificity (from pY)” value was −2, −1, +1, +2, and +3 from the phosphotyrosine.

B2: N-SH2^Cys63 (protein)
chain: WFHPNITGVEAENLLLTRGVDGSFLARPSKSNPGDFTLSVRRNGAVTHIKIQNTGDYCDLYGGEKFATLAELVQYYMEHHGQLKEKNGDVIELKYPLN
modifications: left off: polyHis, end not stated, kept
For the molecule B2, in experiment [3], the “phosphopeptide positions mediating binding specificity (from pY)” value is “Those positions were found to bear the highest information content”.

B3: N-SH2^Lys76 (protein)
chain: WFHPNITGVEAENLLLTRGVDGSFLARPSKSNPGDFTLSVRRNGAVTHIKIQNTGDYYDLYGGEKFATLAKLVQYYMEHHGQLKEKNGDVIELKYPLN
modifications: left off: GST, end not stated, kept
Take B3: the “phosphopeptide positions mediating binding specificity (from pY)” value in experiment [3] is “Those positions were found to bear the highest information content”.

B4: N-SH2^Asp62 (protein)
chain: WFHPNITGVEAENLLLTRGVDGSFLARPSKSNPGDFTLSVRRNGAVTHIKIQNTGDDYDLYGGEKFATLAELVQYYMEHHGQLKEKNGDVIELKYPLN
modifications: left off: polyHis, end not stated, kept
For B4, the “phosphopeptide positions mediating binding specificity (from pY)” value in experiment [3] is reported as “Those positions were found to bear the highest information content”.
